# Measured values: PMC6614797
# Where two headings read alike, the source gives them in different places.
# How the values were obtained:
# Assay in all cases: analytical size exclusion chromatography
# [1] = target: T1, SuhB (Escherichia coli, UniProt P0ADG4 1-267)
# [2] = target: NusB;NusEdelta (S10 lacking the ribosome binding loop) (Escherichia coli;Escherichia coli, UniProt P0A780;P0A7R5 1-139;1-45+68-103, |internal_change)
# [3] = target: T1, SuhB; remark: listed apart in the source
# [4] = target: RNA polymerase;NusA;NusB;NusEdelta (S10 lacking the ribosome binding loop);NusG;SuhB (Escherichia coli;Escherichia …, UniProt P0A7Z4;P0A8V2;P0A8T7;P0A800;P0AFF6;P0A780;P0A7R5;P0AFG0;P0ADG4 …, |||internal_change||)
binder,measurement,setting,value
UUUUUGAGUCUGCGGCGCGCG (ssRNA) [random RNA],binding result,[1],no binding
rrnG RNA (structured_RNA) RNA: GGGCCGCGCCGCUGAGAAAAAGCGAAGCGGCACUGCUCUUUAACAAUUUAUCAGACAAUCUGUGUGGG,binding result,[2],binds
same,binding result,[3],binds
"rrnG-EC scaffold (T-DNA, NT-DNA, rrnG RNA) (mixed) DNA 1: ATCCGTATCTTCGAGTGCCCACACAGATTGTCTCATAAATTGTTAAAGAGCAGTGCCGC DNA 2: GCGGCACTGCTCTTTAACAATTTATCAGACTTGTCCACGCTCGTCTCGAAGATACGGAT RNA: GGGCCGCGCCGCUGAGAAAAAGCGAAGCGGCACUGCUCUUUAACAAUUUAUCAGACAAUCUGUGUGGG",binding result,[4],binds
